Test results reported in the supplement of paper PMC9170038.

System: K4 kissing-loop RNA reporter
Experiment: apparent KD of K4 kissing-loop reporter; higher = weaker reporter binding
Details: Eterna round: R107
Description: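 RNA-MaP round R107: designed RNA switches with theophylline, tryptophan, arginine or FMN aptamers are transcribed on-chip within common flanks. They are titrated with a labelled K4 kissing-loop RNA reporter in RNA-MaP buffer (100 mM Tris pH 7.5, 80 mM KCl, 4 mM MgCl2), without ligand or with the indicated ligand. Median apparent KD per design.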

[1] = input ligand: theophylline 20 uM
[2] = input ligand: tryptophan 2.4 mM
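Further: bound reporter read as fluorescence of individual clusters on recovered sequencing chips by microscopy, with normalized cluster intensities fitted with a binding model.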

| Sequence | apparent KD of K4 kissing-loop reporter (input ligand: FMN 200 uM) [µM] | apparent KD of K4 kissing-loop reporter (input ligand: arginine 13.2 mM) [µM] | apparent KD of K4 kissing-loop reporter (input ligand: none) [µM] | apparent KD of K4 kissing-loop reporter [1] [µM] | apparent KD of K4 kissing-loop reporter [2] [µM] |
| --- | --- | --- | --- | --- | --- |
| UGGAGGAGUGAUGUUCCCGAAACAUGAGAUACCAGCGUCACAGUCCGCCCUUGGCAGCUCGGUCCAAUUUGCCUCGCGGGUAAUG [theeternabot_sameState_KL_Theo_A_23] | 0.244 | 0.251 | 0.299 | 0.257 | 0.182 |
| AAACAUCACUGGGAGUGAUGUUCUCAGUGACGAGGACCGGUACGGCCGCCACUCGCGAGAGAUCUAGUCUAGUCUUGACUGCAUU [Excl Tryptophan A V13] | 0.282 | 0.284 | 0.292 | 0.359 | 0.333 |
| UUAGCAGUAUACUGCAAGACCUAUACUGAUACCAGAGCCUAUAGGCUCCCUUGGCAGCGGAUCGAGUGAUGUUCGUAAGGUCAUU [AK4.3 SS Theophylline A] | 0.651 | 0.667 | 1.08 | 0.682 | 0.458 |
| AGCGAGUGAUGUUCGCUGAUCAUGUGAAGUUAGGAUAUAUACUUGCAUAGAAGGAACUAUUACAUGACAUUAGAGGCAGUAGUUC [FMN A SS t7b] | 0.165 | 0.173 | 0.167 | 0.171 | 0.128 |
| GCCGUACGCAUGGAUACCAGCGCUCGUCACCUAGCAGUGAUGUUGCUAAUGCCACGAGGACGCCCUUGGCAGCCAUGCGUACGGC | 0.116 | 0.101 | 0.102 | 0.0833 | 0.107 |
| UAUAUAUGAUGUGAUACCAGUGAAAAGCCAGUGAUGUUGGUAGAACUGGUAUAUAAAUGGCACCCUUGGCAGCACAAUCACGUAU [#28 K4 Theophylline B Exclusion] | 0.119 | 0.108 | 0.114 | 0.12 | 0.117 |
| GCGCGCGUUUUAGAUACCAGCCAGUGAUGUUGGCGAGGAUUCUGGAGCGUAGUGUCAAAUGGCCCUUGGCAGCUAACACGCGGCU [Zabea] | 0.117 | 0.108 | 0.119 | 0.134 | 0.123 |
| AUUUUUUUGUCAGGAUAUUAGUAUGCAUUUAGUUUGUUAGUGAUGUUGAUAUUUUGUUUAUGUAUUUAAGAAGGGAUUUAGCGGU [iiikmullin] | 0.384 | 0.217 | 0.335 | 0.34 | 0.306 |
| AACCGUGUGGCGGCCGCCACUAGUCUCCAGUGAUGUUGGAGAGACCACGUAAGUGGUCUCCGACAUAGGACCGGGCCAUAUGGAA [Same State - Tryptophan B (Freestyle 25)] | 0.547 | 0.339 | 0.361 | 0.531 | 0.692 |
| GUCCCAGUGAUGUUGGUAGGCGAGCGGGAUACCAGCCAAGACUCAGGCCCUUGGCAGCCCACAUAUCCCACGUAGGGAUUAGCUC [Same State - Theophylline A (Freestyle 19)] | 0.212 | 0.198 | 0.223 | 0.256 | 0.173 |
| AAACGUCGGAAGUGAUGUUGAUGACGUAGUAAGGAUAUUGGACGCGCAAGAAGGUACUGGCAAACUAAGGACAUCCUGGAUAUUC [theeternabot_exclusion_KL_FMN_A_47] | 0.33 | 0.251 | 0.232 | 0.243 | 0.254 |
| GGAUAGGACAGAGGAUAUCCUAAAGAGGCAAGAAUAACUUGUCUCAAAUGGAUGACCAGUGAUGUUGGAGAAGGCUGUCCUAUCG [FmnBX 6 - #SwitchBubble #StaticStem] | 0.406 | 0.194 | 0.207 | 0.147 | 0.178 |
| CGGGUACGUCAAGGAUAUAGGCAUGACGUAGUGCAGUGAUGUUGCUCGAGUCUCUUCAACUGAGGACUAGAAGGUGAUCGUAACA [theeternabot_sameState_KL_FMN_B_15] | 0.491 | 0.351 | 0.631 | 0.644 | 0.344 |
| GCCGUACGCAUGGAUACCAGUCAAGAUCAGUGAUGUUGAUCUUUUAUAGAGCCUUCAUUAGACCCUUGGCAGCCAUGCGUACGGC | 0.429 | 0.237 | 0.391 | 0.373 | 0.25 |
| AUGUACACGAUAGUGUACUCCUAGUGAUGUUAGGAUAUGCAGAUAUGCAGAAGGAACAAGUCAUCUGACAAUAGUCGGAUGACAA [FmnAX 9 #OpenEnded #K4Early] | 0.388 | 0.0925 | 0.119 | 0.125 | 0.0941 |
| UUCUACGAGUGAUGUUCGUAGUGUAUUCGCUAGGAUAUCGUUUUUUCGAGAAGGAGUGAUGAAGUGAUACGAAAGUAUCGCUUCU [FMN A 14] | 0.223 | 0.241 | 0.352 | 0.411 | 0.292 |
| AUAUUUAUUUAGUCACUUUUAAUAUUAUGUCAGGAUAUCGUAAUUUCGAGAAGGGACUCAUGCUAGUGAUGUUAGCUAAUUCUCA [JR_Nu3_ExcFMNA_Sub023] | 0.102 | 0.161 | 0.135 | 0.16 | 0.11 |
| CGAUGGAUGGCAGGAUAUAGACAUUGAGUGAUGUUCGAUGAUUAUCCAUAUUCCCGUCACCUAUGACUAGAAGGGCCAUCCAUCG | 0.236 | 0.485 | 0.464 | 0.587 | 0.577 |
| AAACAUUGGUCUGAUACCAGCUGAUCGGAAACGAUCUUGCUGGAGUGAUGUUCCAAGUAAAGCCCUUGGCAGCAGACCGAUGAAA [MAT - Same State Theophlline B - Mod of Eli - D19] | 0.108 | 0.0533 | 0.0726 | 0.107 | 0.0818 |
| GGACGACAGUCGGCCGCCACUCACAGCAGCCAGUGAUGUUGGAUUGUAGCGGAGUGAUGUUUCGCGAGGACCGGGACUGCAGUCC [Same State Tryptophan B GF 14] | 0.19 | 0.171 | 0.227 | 0.226 | 0.199 |
| ACUGAAAGAUCUGAUACCAGACUUUUUGUAUUUAUUAAAACUAGUGAUGUUAGUUUAUCAGUCCCUUGGCAGCAGUUACUACAGA [JR_Nu_ExcTheophyB_Sub024] | 0.091 | 0.106 | 0.105 | 0.103 | 0.0954 |
| UGUCAUUGGUCGGCCGCCACUAGGACCGGGUUUUACCUAGUGAUGUUAGUAUGAACGGCCGCCACUAGGACCGGGACCGAUGACU [KL-SSTryp-B25 #DoubleAptamer] | 0.343 | 0.195 | 0.322 | 0.442 | 0.113 |
